Data published in patent US11856945B2, “Methods and systems for preparing and preserving a biological sample” (Washington University, priority 2017, dated 2024).

What was measured:
Assay type in all cases: physicochemical
[1] = NGAL quantity in eluates by BCA assay; details: paper card stored at 40° C. for 1 week; % of spiked amount
[2] = NGAL encapsulation efficiency in ZIF-8 crystals (ELISA of supernatant)
Protocol: To quantify the encapsulation efficiency, the supernatant after crystals centrifugation was collected and remaining NGAL concentration was determined using sandwich enzyme-linked immunosorbent assay (ELISA). […] The encapsulation efficiency was calculated by subtracting the remaining NGAL amount in the supernatant after encapsulation and centrifugation (concentration measured by ELISA) from the total NGAL amount.
Characterization. To characterize protein-embedded crystals, crystals were centrifuged and washed with DI water twice (8 k r.p.m. for 20 minutes). To calculate the encapsulation efficiency, the supernatant after first centrifugation was collected and assayed by ELISA. SEM images were obtained using a FEI Nova 2300 field-emission scanning electron microscope at an acceleration voltage of 10 kV. Fourier transform infrared spectroscopy (FTIR) measurements were conducted using a Nicolette Nexus 470 spectrometer. The Raman spectra were obtained using a Renishaw inVia confocal Raman spectrometer mounted on a Leica microscope with a 50× objective and a 514 nm wavelength diode laser as an illumination source. The X-ray diffraction (XRD) measurements of the samples were recorded on a Bruker D8-Advance X-ray powder diffractometer using Cu Kα radiation (λ=1.5406 Å).

[3] = Preservation of NGAL in patient urine dried on paper (ELISA); details: three acute kidney injury patients, 1 week
Protocol: Following the successful optimization of ZIF-8 encapsulation using spiked artificial urine samples, the applicability of this technique to patient urine samples was evaluated. Three acute kidney injury patients with different urinary NGAL levels (Patient #1: 32.8 ng/ml, Patient #2: 17.4 ng/ml and Patient #3: 97.5 ng/ml, quantified by ELISA and confirmed by Western blotting, FIG. 15) were selected. […] Thus, protein biomarkers in the mixture are not subjected to extremely low or high pH (Table 2). To assess the preservation efficacy of NGAL, the urine samples with and without ZIF-8 encapsulation dried on paper substrates were stored at 25 or 40° C. for 1 week. NGAL concentration in the eluate was quantified using ELISA. […] Frozen liquid sample (−20° C.) was used as a reference. POSs represent 3 distinct Positive Control signal intensities (POS1>POS2>POS3). Results are the mean and standard deviation from two parallel dots for each biomarker. The frozen-liquid samples stored at −20° C. were employed as the reference.
Sample preparation. NGAL-spiked artificial urine (50 μg/ml of NGAL, 25 μl) or patient urine (25 μl) was first mixed with 2-methylimidazole aqueous solution (12.5 μl) and then zinc acetate dihydrate aqueous solution (12.5 μl). The final concentrations of 2-methylimidazole after mixing were 320 mM, 160 mM, 80 mM and 40 mM. […]

B1: neutrophil gelatinase-associated lipocalin (protein, UniProt P80188 21-198, looked up)
Neutrophil …: QDSTSDLIPAPPLSKVPLQQNFQDNQFQGKWYVVGLAGNAILREDKDPQKMYATIYELKEDKSYNVTSVLFRKKKCDYWIRTFVPGCQPGEFTLGNIKSYPGLTSYLVRVVSTNYNQHAMVFFKKVSQNREYFKITLYGRTKELTSELKENFIRFSKSLGLPENHIVFPVPIDQCIDG
notes: urinary biomarker for acute kidney injury; human recombinant
proteins eluted as measured by BCA assay [1]: 70%
encapsulation of NGAL ([2]; 40 mM 2-methylimidazole with 10 mM zinc acetate): ~70%
encapsulation efficiency of NGAL ([2]; NGAL spiked in artificial urine, 40 mM zinc acetate and 160 mM 2-methylimidazole): ~95%
encapsulation efficiency of NGAL ([2]; control: mixing NGAL-spiked artificial urine with pure pre-formed ZIF-8 crystals (physical adsorption)): ~10%
NGAL preservation in patient urine ([3]; 25° C.): less than 40%
NGAL preservation in patient urine ([3]; 40° C.): less than 40%
